Test results taken from publication PMC6360533 (Neuron, 2018).

Columns and labels:
[1] = biological target: the molecule itself; assay: SEC-MALS
[2] = biological target: the molecule itself; assay: SEC
[3] = biological target: the molecule itself; assay: native gel or EMSA

B1: purified mouse TMC1 (mmTMC1) reconstituted into amphipols (natural protein, UniProt Q8R4P5 1-757, looked up)
chain: MLQIQVEEKEEDTEESSSEEEEDKLPRRESLRPKRKRTRDVINEDDPEPEPEDEETRKAREKERRRRLRRGAEEEEEIDEEELERLKALLDENRQMIATVKCKPWKMEKKIEVLKEAKKFVSENEGALGKGKGKKWFAFKMMMAKKWAKFLRDFENFKAACVPWENKIKAIESQFGSSVASYFLFLRWMYGVNMVLFVLTFSLIMLPEYLWGLPYGSLPRKTVPRAEEASAANFGVLYDFNGLAQYSVLFYGYYDNKRTIGWLNFRLPLSYFLVGIMCIGYSFLVVLKAMTKNIGDDGGGDDNTFNFSWKVFCSWDYLIGNPETADNKFNSITMNFKEAIIEERAAQVEENIHLIRFLRFLANFFVFLTLGASGYLIFWAVKRSQEFAQQDPDTLGWWEKNEMNMVMSLLGMFCPTLFDLFAELEDYHPLIALKWLLGRIFALLLGNLYVFILALMDEINNKIEEEKLVKANITLWEANMIKAYNESLSGLSGNTTGAPFFVHPADVPRGPCWETMVGQEFVRLTVSDVLTTYVTILIGDFLRACFVRFCNYCWCWDLEYGYPSYTEFDISGNVLALIFNQGMIWMGSFFAPSLPGINILRLHTSMYFQCWAVMCCNVPEARVFKASRSNNFYLGMLLLILFLSTMPVLYMIVSLPPSFDCGPFSGKNRMFEVIGETLEHDFPSWMAKILRQLSNPGLVIAVILVMVLTIYYLNATAKGQKAANLDLKKKMKQQALENKMRNKKMAAARAAAAAGGQ
stoichiometry N [1]: 2

B2: human TMC1 (hsTMC1) fused to GFP (natural protein, UniProt Q8TDI8 1-760, looked up)
chain: MSPKKVQIKVEEKEDETEESSSEEEEEVEDKLPRRESLRPKRKRTRDVINEDDPEPEPEDEETRKAREKERRRRLKRGAEEEEIDEEELERLKAELDEKRQIIATVKCKPWKMEKKIEVLKEAKKFVSENEGALGKGKGKRWFAFKMMMAKKWAKFLRDFENFKAACVPWENKIKAIESQFGSSVASYFLFLRWMYGVNMVLFILTFSLIMLPEYLWGLPYGSLPRKTVPRAEEASAANFGVLYDFNGLAQYSVLFYGYYDNKRTIGWMNFRLPLSYFLVGIMCIGYSFLVVLKAMTKNIGDDGGGDDNTFNFSWKVFTSWDYLIGNPETADNKFNSITMNFKEAITEEKAAQVEENVHLIRFLRFLANFFVFLTLGGSGYLIFWAVKRSQEFAQQDPDTLGWWEKNEMNMVMSLLGMFCPTLFDLFAELEDYHPLIALKWLLGRIFALLLGNLYVFILALMDEINNKIEEEKLVKANITLWEANMIKAYNASFSENSTGPPFFVHPADVPRGPCWETMVGQEFVRLTVSDVLTTYVTILIGDFLRACFVRFCNYCWCWDLEYGYPSYTEFDISGNVLALIFNQGMIWMGSFFAPSLPGINILRLHTSMYFQCWAVMCCNVPEARVFKASRSNNFYLGMLLLILFLSTMPVLYMIVSLPPSFDCGPFSGKNRMFEVIGETLEHDFPSWMAKILRQLSNPGLVIAVILVMVLAIYYLNATAKGQKAANLDLKKKMKMQALENKMRNKKMAAARAAAAAGRQ
stoichiometry N [2]: 2

B3: purified human TMC1 (hsTMC1) reconstituted into amphipols (natural protein, UniProt Q8TDI8 1-760, looked up)
chain: B2 chain
stoichiometry N [3]: 2
